Columns and labels:
Experiment in all cases: mGppNHp-bound
[1] = target: T1, RAC3 (aa 1-192) (human, UniProt P60763 1-192)
[2] = target: RAC2 (aa 1-192) (human, UniProt P15153 1-192)
[3] = target: T2, RAC1 (aa 1-179) (human, UniProt P63000 1-179)
[4] = target: T3, RHOG (aa 1-178) (human, UniProt P84095 1-178)
[5] = target: T4, CDC42 (aa 1-178) (human, UniProt P60953 1-178)
[6] = target: T5, CDC42 V85D/S88D (human, UniProt P60953 1-178, V85D | S88D)
[7] = target: T6, CDC42 Q74D (human, UniProt P60953 1-178, Q74D)
[8] = target: T7, RAC1 T25K/N26D (human, UniProt P63000 1-179, T25K | N26D)
[9] = target: T8, RHOA-to-RAC1 variant (RHOA K27T, D28N, E47M, E54N, D76Q) (human, UniProt P61586 1-181, K27T | D28N | E47M | E54N | D76Q)
[10] = target: T9, RAC1 Q74D (human, UniProt P63000 1-179, Q74D)
[11] = target: T10, CDC42 M45E/N52E (so in the source); residue 52 of CDC42 is given as T52 in the discussion) (human, UniProt P60953 1-178, M45E | N52E (T52 in CDC42))
[12] = target: T11, RAC1 M45E/N52E (human, UniProt P63000 1-179, M45E | N52E)
[13] = target: T12, CDC42 T25K/N26D (human, UniProt P60953 1-178, T25K | N26D)
[14] = target: T13, RAC1 V85D/S88D (so in the source); residue 88 of RAC1 is Ala by the legend of Figure 2) (human, UniProt P63000 1-179, V85D | S88D (Ala-88 in RAC1))
[15] = target: T1, RAC3 (aa 1-192); remark: listed apart in the source
[16] = target: T2, RAC1 (aa 1-179); remark: listed apart in the source
[17] = target: T3, RHOG (aa 1-178); remark: listed apart in the source
[18] = target: T4, CDC42 (aa 1-178); remark: listed apart in the source
[19] = target: T5, CDC42 V85D/S88D; remark: listed apart in the source
[20] = target: T6, CDC42 Q74D; remark: listed apart in the source
[21] = target: T7, RAC1 T25K/N26D; remark: listed apart in the source
[22] = target: T8, RHOA-to-RAC1 variant (RHOA K27T, D28N, …); remark: listed apart in the source
[23] = target: T9, RAC1 Q74D; remark: listed apart in the source
[24] = target: T10, CDC42 M45E/N52E (so in the source); residue 52 …; remark: listed apart in the source
[25] = target: T11, RAC1 M45E/N52E; remark: listed apart in the source
[26] = target: T12, CDC42 T25K/N26D; remark: listed apart in the source
[27] = target: T13, RAC1 V85D/S88D (so in the source); residue 88 …; remark: listed apart in the source

T3 sequence (P84095 1-178): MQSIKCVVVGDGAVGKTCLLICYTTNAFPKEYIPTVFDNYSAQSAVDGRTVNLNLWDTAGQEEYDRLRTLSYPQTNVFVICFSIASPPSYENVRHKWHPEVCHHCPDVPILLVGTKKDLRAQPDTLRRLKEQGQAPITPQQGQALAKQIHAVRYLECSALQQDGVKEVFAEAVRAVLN
T4 sequence (P60953 1-178): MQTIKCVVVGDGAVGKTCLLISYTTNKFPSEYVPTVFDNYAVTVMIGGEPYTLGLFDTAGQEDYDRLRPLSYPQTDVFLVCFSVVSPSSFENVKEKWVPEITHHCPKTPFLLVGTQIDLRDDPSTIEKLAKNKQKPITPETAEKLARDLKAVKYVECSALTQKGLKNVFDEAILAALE
T8 sequence (P61586 1-181 K27T/D28N/E47M/E54N/D76Q): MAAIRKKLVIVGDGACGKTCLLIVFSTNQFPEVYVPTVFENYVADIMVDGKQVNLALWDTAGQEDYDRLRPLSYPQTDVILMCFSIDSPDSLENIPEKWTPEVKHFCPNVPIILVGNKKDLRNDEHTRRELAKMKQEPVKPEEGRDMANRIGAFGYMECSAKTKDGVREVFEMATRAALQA
T12 sequence (P60953 1-178 T25K/N26D): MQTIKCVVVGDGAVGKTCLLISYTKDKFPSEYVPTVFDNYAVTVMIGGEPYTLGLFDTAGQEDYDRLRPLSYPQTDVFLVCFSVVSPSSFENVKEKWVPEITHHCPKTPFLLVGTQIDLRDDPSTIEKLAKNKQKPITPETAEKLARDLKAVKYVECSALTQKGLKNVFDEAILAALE
T6 sequence (P60953 1-178 Q74D): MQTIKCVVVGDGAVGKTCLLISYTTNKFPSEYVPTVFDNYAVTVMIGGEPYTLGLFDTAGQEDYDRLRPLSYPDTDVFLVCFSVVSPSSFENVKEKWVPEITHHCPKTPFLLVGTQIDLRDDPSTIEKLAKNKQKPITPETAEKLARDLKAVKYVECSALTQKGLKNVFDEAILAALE
T5 sequence (P60953 1-178 V85D/S88D): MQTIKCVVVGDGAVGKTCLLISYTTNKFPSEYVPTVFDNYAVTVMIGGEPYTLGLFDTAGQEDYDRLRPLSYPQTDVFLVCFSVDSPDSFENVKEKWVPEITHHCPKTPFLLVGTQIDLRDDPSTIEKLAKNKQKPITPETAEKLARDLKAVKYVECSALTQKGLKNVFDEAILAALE
T10 sequence (P60953 other isoform, or with tags, fused parts or gaps M45E | N52E (T52 in CDC42) | M45E N52E): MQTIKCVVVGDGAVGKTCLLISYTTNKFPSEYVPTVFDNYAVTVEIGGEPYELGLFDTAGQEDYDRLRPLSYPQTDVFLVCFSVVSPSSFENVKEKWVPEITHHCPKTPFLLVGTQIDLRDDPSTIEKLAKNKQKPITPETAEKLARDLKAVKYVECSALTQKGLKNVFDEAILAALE

B1: IQGAP1^C794 (C-terminal half of human IQGAP1 with the GRD, RGCT and CT domains) (domain or fragment)
chain: DPPMVVVRKFVHLLDQSDQDFQEELDLMKMREEVITLIRSNQQLENDLNLMDIKIGLLVKNKITLQDVVSHSKKLTKKNKEQLSDMMMINKQKGGLKALSKEKREKLEAYQHLFYLLQTNPTYLAKLIFQMPQNKSTKFMDSVIFTLYNYASNQREEYLLLRLFKTALQEEIKSKVDQIQEIVTGNPTVIKMVVSFNRGARGQNALRQILAPVVKEIMDDKSLNIKTDPVDIYKSWVNQMESQTGEASKLPYDVTPEQALAHEEVKTRLDSSIRNMRAVTDKFLSAIVSSVDKIPYGMRFIAKVLKDSLHEKFPDAGEDELLKIIGNLLYYRYMNPAIVAPDAFDIIDLSAGGQLTTDQRRNLGSIAKMLQHAASNKMFLGDNAHLSIINEYLSQSYQKFRRFFQTACDVPELQDKFNVDEYSDLVTLTKPVIYISIGEIINTHTLLLDHQDAIAPEHNDPIHELLDDLGEVPTIESLIGESSGNLNDPNKEALAKTEVSLTLTNKFDVPGDENAEMDARTILLNTKRLIVDVIRFQPGETLTEILETPATSEQEAEHQRAMQRRAIRDAKTPDKMKKSKSVKEDSNLTLQEKKEKIQTGLKKLTELGTVDPKNKYQELINDIARDIRNQRRYRQRRKAELVKLQQTYAALNSKATFYGEQVDYYKSYIKTCLDNLASKGKVSKKPREMKGKKSKKISLKYTAARLHEKGVLLEIEDLQVNQFKNVIFEISPTEEVGDFEVKAKFMGVQMETFMLHYQDLLQLQYEGVAVMKLFDRAKVNVNLLIFLLNKKFYGK
Question: What does the source list for B1?
Answer: koff [1]: 0.69 s⁻¹; koff [2]: 0.08 s⁻¹; koff [3]: 0.65 s⁻¹; koff [4]: 0.56 s⁻¹; koff [5]: 0.39 s⁻¹; koff [6]: 0.88 s⁻¹; koff [7]: 1.19 s⁻¹; koff [8]: 2.01 s⁻¹; koff [9]: 2.1 s⁻¹; koff [10]: 0.74 s⁻¹; koff [11]: 0.95 s⁻¹; koff [12]: 1.4 s⁻¹; koff [13]: 0.48 s⁻¹; koff [14]: 2.84 s⁻¹; Kd [15]: 450 nM; Kd [16]: 930 nM; Kd [17]: 490 nM; Kd [18]: 290 nM; Kd [19]: 1200 nM; Kd [20]: 1320 nM; Kd [21]: 15300 nM; Kd [22]: 1750 nM; Kd [23]: 6100 nM; Kd [24]: 1230 nM; Kd [25]: 8200 nM; Kd [26]: 920 nM; Kd [27]: 10500 nM
